Measured values: PMC7538599

Biological target: GltPh, archaeal homolog of excitatory amino acid transporters from Pyrococcus horikoshii (Pyrococcus horikoshii) (UniProt O59010)
Assay: high-speed atomic force microscopy (HS-AFM) imaging; purified GltPh reconstituted in DOPC/DOPE/DOPS 8:1:1 membranes, spread on mica, imaged in buffer solution in amplitude modulation mode; unlabeled protein

For “GltPh, archaeal homolog of excitatory amino acid transporters from Pyrococcus horikoshii (from UniProt O59010 1-425) (natural protein)”, the stoichiometry N was 3.
